Data taken from US20210269818A1.

Molecular target: Rubisco purified from wheat leaves, inhibited by RuBP (ER) (Triticum aestivum (wheat)) (UniProt P11383)
Test: cell-based or functional assay

Row | Substance | Tm (° C.) (V): thermal midpoint at which half of Rubisco activation velocity by Rca is lost
1 | recombinant rice Rca β (OsRca-β), signal peptide deleted, C-terminal His-tag (from UniProt P93431 49-466) (enzyme) | 42.5
2 | recombinant wheat Rca1 β (TaRca1-β), signal peptide deleted, C-terminal His-tag (from UniProt Q42450 44-425) (enzyme) | 42
3 | recombinant wheat Rca2 β (TaRca2-β), signal peptide deleted, C-terminal His-tag (from UniProt Q40073 49-427) (enzyme) | 34.8
4 | Rca extracted from control wheat leaves (TaRca-leaf-25° C.) (enzyme) | 38.6

Next, values leading:

Row | Tm (° C.) (V): thermal midpoint at which half of Rubisco activation velocity by Rca is lost | Substance
5 | 39.5 | Rca extracted from heat treated wheat leaves (TaRca-leaf-38° C.) (enzyme)
6 | 35.3 | recombinant wheat Rca2 α (TaRca2-α), signal peptide deleted, C-terminal His-tag (from UniProt Q40073 47-464) (enzyme)
